One data set addresses Soybean agglutinin (SBA) (UniProt P05046).
In data set [1] the target is T1, soybean Bowman-Birk inhibitor (UniProt P01055).
T1 sequence: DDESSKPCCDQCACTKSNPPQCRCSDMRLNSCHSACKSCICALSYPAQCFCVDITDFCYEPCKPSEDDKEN

The target in data set [2] is T2, soybean Kunitz trypsin inhibitor (UniProt P01070).
T2 sequence: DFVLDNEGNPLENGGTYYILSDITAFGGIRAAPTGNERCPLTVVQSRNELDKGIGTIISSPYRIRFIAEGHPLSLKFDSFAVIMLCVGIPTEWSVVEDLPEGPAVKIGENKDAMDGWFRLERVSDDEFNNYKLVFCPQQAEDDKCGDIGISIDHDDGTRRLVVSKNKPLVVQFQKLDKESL

Sequence of Soybean agglutinin (SBA) (P05046 33-285): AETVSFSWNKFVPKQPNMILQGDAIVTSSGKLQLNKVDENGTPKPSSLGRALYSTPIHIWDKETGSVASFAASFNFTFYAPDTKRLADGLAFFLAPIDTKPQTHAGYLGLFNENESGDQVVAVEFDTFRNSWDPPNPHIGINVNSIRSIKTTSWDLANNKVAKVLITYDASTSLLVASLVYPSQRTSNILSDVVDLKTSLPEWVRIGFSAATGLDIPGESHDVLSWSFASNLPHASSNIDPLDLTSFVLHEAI

For “protease from Nocardiopsis sp. NRRL 18262”, the Percentage degradation of isolated soy proteins was 100% with Soybean agglutinin (SBA); 95% with Soybean beta-conglycinin; 98% in the data set with Soybean glycinin; 35% in data set [1]; 94% in data set [2].

These data come from patent US20050058747.
